In patent US11136407 (AIMM THERAPEUTICS B V, dated 2021):
Changes are numbered by the printed parent chain. Names and notes keep the numbering of the source. Bridges are numbered along the chain shown (N, C = ends). Primed or numbered codes have the meaning given here. Where no end group is shown, it is not given here. The star is where a group is joined. PEG2′ = PEG2 spacer group linking an N-terminal biotin to the peptide; Biotin = O=C1N[C@H]2[C@H](CS[C@H]2CCCCC(=O)*)N1

B1: antibody AT14-012 (antibody, V domains shown)
VH: EVQVVESGGGLVQPGRSLRLSCAASGFTFDDYAMHWVRQAPGKGLEWVSGISWNSGSIVYADSVKGRFTISRDNAKNSLYLQLNSLRAEDTAFYYCAKAVSGYYPYFDYWGQGILVTVSS
VL: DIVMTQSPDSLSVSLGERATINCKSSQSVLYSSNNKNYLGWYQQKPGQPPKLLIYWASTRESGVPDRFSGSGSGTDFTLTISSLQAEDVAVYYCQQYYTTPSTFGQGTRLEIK
notes: also called AT1412; WT AT14-012
B2: AT14-012 recombinant antibody engineered as an IgG1 (antibody, V domains shown)
VH: B1 VH
VL: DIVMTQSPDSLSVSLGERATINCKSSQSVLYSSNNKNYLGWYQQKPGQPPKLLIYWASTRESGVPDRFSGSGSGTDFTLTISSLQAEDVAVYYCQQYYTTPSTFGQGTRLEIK
modifications: Some experiments used Alexa647 or biotin labelled antibody, or a sortase-tagged (ST) heavy chain. None of this is carried in the letters.
notes: May be the same molecule as m1 if m1 stands for the IgG1 form; also called AT14-012 IgG1
B3: AT14-012 single mutant H40Y (antibody, V domains shown)
VH: B1 VH with H35Y
VL: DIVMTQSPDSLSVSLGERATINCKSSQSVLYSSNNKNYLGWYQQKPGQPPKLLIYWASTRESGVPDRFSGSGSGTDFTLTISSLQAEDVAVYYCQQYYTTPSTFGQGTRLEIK
B4: 2H15 B cell subclone 1F5 (antibody, V domains shown)
VH: B1 VH with Y104F
VL: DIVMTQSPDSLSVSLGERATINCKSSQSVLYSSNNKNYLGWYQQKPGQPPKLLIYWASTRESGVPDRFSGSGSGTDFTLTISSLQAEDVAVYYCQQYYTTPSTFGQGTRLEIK
notes: group 1; B cell supernatant
B5: 2H15 B cell subclone 2D12 (antibody, V domains shown)
VH: B1 VH with D108H
VL: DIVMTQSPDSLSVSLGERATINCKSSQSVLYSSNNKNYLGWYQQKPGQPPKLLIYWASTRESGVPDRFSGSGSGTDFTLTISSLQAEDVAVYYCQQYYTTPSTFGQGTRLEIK
notes: group 2; B cell supernatant
B6: AT14-012 single mutant Y112F (antibody, V domains shown)
VH: B1 VH with Y104F
VL: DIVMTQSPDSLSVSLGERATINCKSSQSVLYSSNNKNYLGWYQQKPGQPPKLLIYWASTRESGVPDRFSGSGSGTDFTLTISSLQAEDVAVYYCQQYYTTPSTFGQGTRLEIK
B7: 2H15 B cell subclone 10D1 (antibody, V domains shown)
VH: B1 VH with H35Y
VL: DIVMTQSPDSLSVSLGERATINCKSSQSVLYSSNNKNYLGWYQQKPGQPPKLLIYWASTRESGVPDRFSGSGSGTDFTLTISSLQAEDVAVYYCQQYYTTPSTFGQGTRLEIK
notes: group 1; B cell supernatant
B8: AT14-012 single mutant T29N (antibody, V domains shown)
VH: B1 VH with T28N
VL: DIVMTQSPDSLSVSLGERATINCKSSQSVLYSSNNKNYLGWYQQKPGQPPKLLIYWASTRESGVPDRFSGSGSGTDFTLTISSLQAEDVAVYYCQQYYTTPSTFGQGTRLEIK
B9: AT14-012 double mutant H40Y/Y112F (antibody, V domains shown)
VH: B1 VH with H35Y, Y104F
VL: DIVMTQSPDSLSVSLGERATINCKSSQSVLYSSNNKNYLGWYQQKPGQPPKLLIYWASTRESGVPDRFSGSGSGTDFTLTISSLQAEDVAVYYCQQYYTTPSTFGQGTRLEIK
notes: also called double group 1 mutant; combination group 1 mutant
B10: AT14-012 double mutant D116H/T29N (antibody, V domains shown)
VH: B1 VH with T28N, D108H
VL: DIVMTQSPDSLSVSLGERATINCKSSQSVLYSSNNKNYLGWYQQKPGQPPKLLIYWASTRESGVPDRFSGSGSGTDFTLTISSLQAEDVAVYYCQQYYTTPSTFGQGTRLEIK
notes: also called combination of the two group 2 mutations
B11: AT14-012 single mutant D116H (antibody, V domains shown)
VH: B1 VH with D108H
VL: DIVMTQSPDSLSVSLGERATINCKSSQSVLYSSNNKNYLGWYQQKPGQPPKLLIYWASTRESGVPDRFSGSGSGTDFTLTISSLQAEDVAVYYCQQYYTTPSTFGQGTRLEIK
B12: 2H15 B cell subclone 1D5 (antibody, V domains shown)
VH: B1 VH with H35Y
VL: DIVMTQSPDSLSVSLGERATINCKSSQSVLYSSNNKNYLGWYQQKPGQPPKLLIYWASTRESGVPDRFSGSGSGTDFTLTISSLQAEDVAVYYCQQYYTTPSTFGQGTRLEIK
notes: group 1; B cell supernatant
B13: 2H15 B cell subclone 4D4 (antibody, IgG3, V domains shown)
VH: B1 VH
VL: DIVMTQSPDSLSVSLGERATINCKSSQSVLYSSNNKNYLGWYQQKPGQPPKLLIYWASIRESGVPDRFSGSGSGTDFTLTISSPQAEDVAVYYCQQYYTTPSTFGQGTRLEIK
notes: group 2; B cell supernatant, IgG3
B14: 2H15 B cell subclone 4H10 (antibody, V domains shown)
VH: B1 VH with H35Y
VL: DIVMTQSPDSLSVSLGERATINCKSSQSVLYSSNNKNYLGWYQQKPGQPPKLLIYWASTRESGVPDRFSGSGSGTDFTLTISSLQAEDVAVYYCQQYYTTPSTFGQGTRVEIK
notes: group 1; B cell supernatant
B15: AT14-012 quadruple mutant H40Y/Y112F/D116H/T29N (antibody, V domains shown)
VH: B1 VH with T28N, H35Y, Y104F, D108H
VL: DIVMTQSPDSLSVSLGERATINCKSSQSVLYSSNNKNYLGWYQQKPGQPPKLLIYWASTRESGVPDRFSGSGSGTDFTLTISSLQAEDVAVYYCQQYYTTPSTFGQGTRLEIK
notes: also called quadruple variant

Assays:
[1] = target: T1, m4 circular peptide biotin-PEG(2)-CSPKKDVLETFTVKSSC (human, disulfide 1-17; not fully specified; printed as biotin-PEG(2)-CSPKKDVLETFTVKSSC); assay: ELISA and SPR
T1 construct: synthetic peptide; also called circular constructed m4 peptide
T1 peptide: {Biotin-PEG2′}-CSPKKDVLETFTVKSSC

mouse CD9 on platelets = target: T2, mouse CD9 on platelets (mouse, UniProt P40240 1-226); assay: flow cytometry on NSG mouse blood, IgG-bio SA-PeCy7
T2 construct: whole, on cells
T2 sequence (looked up): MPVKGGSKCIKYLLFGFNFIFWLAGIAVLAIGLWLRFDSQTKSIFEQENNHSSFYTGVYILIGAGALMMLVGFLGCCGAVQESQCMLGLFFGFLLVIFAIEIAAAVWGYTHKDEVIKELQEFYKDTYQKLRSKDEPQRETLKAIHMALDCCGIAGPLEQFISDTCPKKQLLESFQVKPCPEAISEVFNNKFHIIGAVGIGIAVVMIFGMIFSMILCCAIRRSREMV

surface CD81 = target: T3, surface CD81 (human, UniProt P60033); assay: flow cytometry, AT14-12 (IgG1) against AT10-02 (IgG1) on transduced HL-60 cells
T3 construct: also called CD81 on cells
T3 sequence (tetraspanin chain, looked up): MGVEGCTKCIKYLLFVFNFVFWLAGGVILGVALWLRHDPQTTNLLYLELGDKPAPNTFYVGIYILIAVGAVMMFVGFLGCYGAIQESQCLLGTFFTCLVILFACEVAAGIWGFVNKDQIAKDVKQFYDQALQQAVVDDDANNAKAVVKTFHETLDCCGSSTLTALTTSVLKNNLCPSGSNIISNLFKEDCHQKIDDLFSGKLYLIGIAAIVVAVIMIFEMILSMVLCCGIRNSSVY

[2] = target: T4, CD9-3×FLAG-rabbitFc-Sortase-biotin (human; rabbit, biotin attached at the C-terminus by Sortase A with a GGG-biotin nucleophile; the HIS tag is removed by that reaction); assay: SPR on CD9-3xFLAG-rabbitFc-Sortase-biotin spots, CHO production supernatant; unit from the legend paragraph 219
T4 construct: also called CD9-EC2-3×FLAG-rabbitFc; recombinant CD9-EC2 protein; not shown: Fc region (CH2-CH3) of a rabbit IgG1 protein, amino acids 108-322, UniProt P01870
T4 chain (part 1 of 2): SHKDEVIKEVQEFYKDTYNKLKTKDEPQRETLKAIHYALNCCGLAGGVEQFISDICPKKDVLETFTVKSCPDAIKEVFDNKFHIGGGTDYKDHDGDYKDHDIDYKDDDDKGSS
T4 chain (part 2 of 2): GGGSLPETGGHHHHHH

[3] = target: T4, CD9-3×FLAG-rabbitFc-Sortase-biotin; assay: SPR on CD9-3xFLAG-rabbitFc-Sortase-biotin spots, CHO production supernatant; unit and power of ten from the legend paragraph 219
[4] = target: T4, CD9-3×FLAG-rabbitFc-Sortase-biotin; assay: SPR on CD9 coated chip, CHO production supernatant
human CD9 = target: T5, human CD9 (human, UniProt P21926 2-228); assay: flow cytometry on melanoma (MelWBO) cells, CHO supernatant
T5 construct: Natural CD9 on tumor cell lines, primary cells and platelets, or in their lysates (Western blot, immunoprecipitation); also called MRP-1; MIC3
T5 sequence: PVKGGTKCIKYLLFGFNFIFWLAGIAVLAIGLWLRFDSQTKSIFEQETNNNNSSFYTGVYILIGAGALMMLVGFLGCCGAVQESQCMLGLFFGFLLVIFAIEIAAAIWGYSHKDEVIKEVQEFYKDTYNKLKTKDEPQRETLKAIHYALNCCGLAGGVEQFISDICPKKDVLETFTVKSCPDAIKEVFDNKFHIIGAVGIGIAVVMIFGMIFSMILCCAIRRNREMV

[5] = target: T4, CD9-3×FLAG-rabbitFc-Sortase-biotin; assay: SPR (IBIS), B cell supernatant on the CD9 spot; unit inferred

Binder	Kd [2]	koff [3]	kon [3]	binding result (human CD9)	Kd [5]	further results
B1						binding result [1]: no binding; binding result (mouse CD9 on platelets): no binding
B2						binding result (surface CD81): no binding
B3	0.543 nM	0.000202 s⁻¹	372000 M⁻¹ s⁻¹	binds		fold enhancement of affinity against WT AT14-012 [4]: 100 times
B4					3.8 nM	
B5					5.2 nM	
B6	1.09 nM	0.000203 s⁻¹	185000 M⁻¹ s⁻¹	binds		fold enhancement of affinity against WT AT14-012 [4]: 50 times
B7					3.9 nM	
B8	50.1 nM	0.00126 s⁻¹	25900 M⁻¹ s⁻¹	binds		
B9	0.219 nM	3.69e-05 s⁻¹	164000 M⁻¹ s⁻¹	binds		Kd [4]: ~0.22 nM; fold enhancement of affinity against WT AT14-012 [4]: 250 times
B10	4.19 nM	0.00297 s⁻¹	708000 M⁻¹ s⁻¹	binds		
B11	4.62 nM	0.00217 s⁻¹	470000 M⁻¹ s⁻¹	binds		fold enhancement of affinity against WT AT14-012 [4]: 10 times
B12					2.3 nM	
B13					15.9 nM	
B14					6.1 nM	
B15	0.455 nM	6.92e-05 s⁻¹	153000 M⁻¹ s⁻¹	binds		Kd [4]: ~0.455 nM; fold lower affinity against the group 1 double mutant (H40Y/Y112F) [4]: 2 times
